From US11732048B2, “Anti-axl antagonistic antibodies” (BERGEN TEKNOLOGIOVERFØRING AS, priority 2016, dated 2023)
Entries after “also recorded” stand apart in the source; their conditions may differ. Values belong to the molecule of their own block, whether it stands above or below them.

What was measured:
[1] = target: T1, human Axl (rhAxl-Fc chimera) (Homo sapiens, UniProt P30530); assay: Biacore binding analysis on immobilised human Axl; conditions: 10 μg/mL in HBS-EP, 25° C.
T1 construct: Soluble recombinant antigens corresponding to the extracellular domains of members of the human TAM receptor family; Fc; purchased R&D Systems 154-AL
Protocol: (§1) All binding experiments were performed using Biacore 3000 instrument (GE Healthcare) at 25° C. Soluble recombinant antigens corresponding to the extracellular domains of members of the human TAM receptor family, Axl (rhAxl-Fc chimera; R&D Systems, Cat. no. 154-AL), Mer (rhMer-Fc chimera; R&D Systems, Cat. no. 891-MR) and Tyro3 (rhTyro3/Dtk-Fc chimera; R&D Systems, Cat. no. 859-DK) were immobilized on the surface of CM5 sensor chip using amine coupling at the surface density of 393.0, 303.6 and 364.0 resonance units (RU), respectively. The Biacore run was performed in an automatic mode using Binding analysis wizard. Samples containing MAb 10G5 at concentration 10 μg/mL in HBS-EP buffer (GE Healthcare) were injected over the surfaces with immobilized antigens at flow rate of 30 μL/min for 3 min (association) followed by 5 min dissociation.
(§2) The binding experiments were performed using Biacore 3000 instrument (GE Healthcare) at 25° C. The soluble recombinant antigens corresponding to human Axl (rhAxl-Fc chimera; R&D Systems, Cat. no. 154-AL), mouse Axl (rmAxl-Fc chimera; R&D Systems, R&D Systems; Cat. no. 854-AX) and human Tyro3 (rhTyro3/Dtk-Fc chimera; R&D Systems, Cat. no. 859-DK) were immobilized on the surface of CM5 sensor chip using amine coupling at the surface density of 1,308.0, 2,115.9 and 1,429.0 RU, respectively. The Biacore runs were performed in an automatic mode using Binding analysis wizard.
(§3) The sample containing MAb 10G5 or recombinant mouse (rm) Axl-ligand Gas6 (R&D Systems, Cat. no. 986-GS/CF) at concentration 10 μg/mL in HBS-EP buffer (GE Healthcare) was injected over the surfaces with immobilized antigens at flow rate of 30 μL/min for 3 min (association) followed by 5 min dissociation.
The sequence of Axl receptor from cynomolgus monkey (Macaca fascicularis; SEQ ID NO: 27) was retrieved from WO2009062690A1. Based on the sequence, recombinant extracellular domain of cyno-Axl was generated by transient expression in CHO cells as a fusion protein with human Fc. The recombinant cyno-Axl-Fc was purified to homogeneity using Protein A-Sepharose (GE Healthcare). The binding experiments were performed using Biacore 3000 instrument (GE Healthcare) at 25° C. The soluble recombinant antigens corresponding to human Axl (rhAxl-Fc chimera; R&D Systems, Cat. no. 154-AL) and cyno-Axl were immobilized on the surface of CM5 sensor chip using amine coupling at the surface density of 775 and 880 RU, respectively. The Biacore runs were performed in an automatic mode using Binding analysis wizard.
The sample containing MAb 10G5 or human Axl-specific MAb 5F11 (control) at concentration 10 μg/mL in HBS-EP buffer (GE Healthcare) was injected over the surfaces with immobilized antigens at flow rate of 30 μL/min for 3 min (association) followed by 5 min dissociation. […]

[2] = target: T2, Tyro3 (rhTyro3/Dtk-Fc chimera) (Homo sapiens, UniProt Q06418); assay: Biacore binding analysis on immobilised human Tyro3; conditions: 10 μg/mL in HBS-EP, 25° C.
T2 construct: Soluble recombinant antigens corresponding to the extracellular domains of members of the human TAM receptor family; Fc; purchased R&D Systems 859-DK
T2 sequence (Q06418 41-429 limits assumed): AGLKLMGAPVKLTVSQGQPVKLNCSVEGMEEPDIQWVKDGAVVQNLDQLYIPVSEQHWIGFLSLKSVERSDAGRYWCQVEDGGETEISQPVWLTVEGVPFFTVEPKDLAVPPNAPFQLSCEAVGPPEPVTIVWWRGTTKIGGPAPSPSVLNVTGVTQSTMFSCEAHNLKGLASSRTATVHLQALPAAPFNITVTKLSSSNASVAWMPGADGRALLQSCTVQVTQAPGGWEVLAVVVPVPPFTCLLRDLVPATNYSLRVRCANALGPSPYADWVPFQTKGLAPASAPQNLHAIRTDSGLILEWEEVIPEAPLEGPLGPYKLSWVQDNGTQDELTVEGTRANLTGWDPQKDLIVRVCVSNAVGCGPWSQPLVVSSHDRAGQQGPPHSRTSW
Protocol: as §1, §2, §3

[3] = target: T3, mouse Axl (rmAxl-Fc chimera; Mm-Axl-Fc) (Mus musculus, UniProt Q00993); assay: Biacore binding analysis on immobilised mouse Axl
T3 construct: The soluble recombinant antigens corresponding to human Axl (rhAxl-Fc chimera; R&D Systems, Cat. no; 154-AL), mouse Axl (rmAxl-Fc chimera; Fc; purchased R&D Systems 854-AX
T3 sequence (Q00993 19-445 limits assumed, change not shown): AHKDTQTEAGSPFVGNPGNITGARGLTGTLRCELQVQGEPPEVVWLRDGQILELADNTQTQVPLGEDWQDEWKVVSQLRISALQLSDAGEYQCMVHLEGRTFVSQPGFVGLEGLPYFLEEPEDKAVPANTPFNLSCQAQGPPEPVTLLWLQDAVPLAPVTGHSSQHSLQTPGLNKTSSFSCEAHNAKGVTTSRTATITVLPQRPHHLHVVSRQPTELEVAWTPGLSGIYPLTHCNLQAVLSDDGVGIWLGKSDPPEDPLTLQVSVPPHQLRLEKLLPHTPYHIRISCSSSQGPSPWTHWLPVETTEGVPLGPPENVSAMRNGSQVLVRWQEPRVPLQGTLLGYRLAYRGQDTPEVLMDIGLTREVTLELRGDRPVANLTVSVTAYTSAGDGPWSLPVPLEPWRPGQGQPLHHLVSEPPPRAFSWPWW
Protocol: as §2, §3
Sensor chip with immobilised Axl: Hs-Axl-Fc (638.2 RU), Mm-Axl-Fc (334.5 RU), Rhe-Axl-Fc (350.2 RU)
All tests were performed in parallel on Hs-Axl-Fc, Mm-Axl-Fc and Rhe-Axl-Fc surfaces.

MDA-MB-231 cells = assay: Three-dimensional (3D) organotypic tumour mass model; type: cell-based, human
Protocol: A highly aggressive triple-negative human breast cancer cell line MDA-MB-231 (ATCC® HTB-26™) was cultured according to recommended conditions in Dulbecco's Modified Eagle's Medium/Nutrient Mixture F-12 Ham medium supplemented with 10% foetal bovine serum (FBS), glutamine and penicillin and streptomycin. The cells were pre-treated in suspension for at least 1 hour at 37° C., to ensure proper binding of antibodies on the cell surface before they were placed in extracellular matrix. The cells cultures were observed every day and fresh treatments were done every other day. The antibodies were used at concentrations 50-100 μg/mL. Imaging of coverslip 3D assay (35 mm dish) was done on a NIKON light microscopy using both Phase contrast and Hoffman optics. Already at day 3, difference in growth of cells treated with MAb10G5 and cells treated with a control irrelevant IgG was observed.
MDA-MB-231 cells were grown on extracellular matrix and allowed to form the highly aggressive stellate shaped morphology. Stellate-shaped tumour masses were then treated with the control IgG and antibody 10G5, as described in EXAMPLE 7.

A549 tumours = assay: A549 human NSCLC xenograft in mice (Examples 14, 16, 17, 18); type: in vivo, mouse; conditions: nude mice, 20 mg/kg i.p. twice weekly, after four weeks of treatment, versus vehicle
From the text: SCID mice were implanted subcutaneously (s.c.) into the flank with 5×10^6 A549 cells resuspended in serum-free medium/Matrigel (1:1).

Binding to recombinant human Tyro3 [2]: no significant binding
Binding to mouse Axl [3]: no significant binding
B1: murine 10G5: mouse monoclonal anti-human Axl antibody from hybridoma WR-10G5-E5; VH SEQ ID NO: 28, VL SEQ ID NO: 29 (antibody, listed as Mus musculus, V domains shown)
VH: QVQLQQSGAELVRPGASVKLSCKASGYSFTDFYINWVRQRPGQGLEWIARIFPGGDNTYYNEKFKGKATLTAEESSSTAYIQLSSLTSEDSAVYFCARRGLYYAMDYWGQGISVTVSS
VL: DVLMTQTPLSLPVSLGDQASISCRSSQSLVHSNGIPYLHWYLQKPGQSPKLLIYRVSNRFSGVPDRFSGSGSGTDFTLKISRVEAEDLGVYFCSQGTHVPPTFGGGTKLEIK
modifications: (1)..(118) Mus musculus 10G5 VH domain; (1)..(112) Mus musculus 10G5 VL domain
Binding to human Axl [1]: bind strongly; also recorded: specific binding; also recorded: strong and specific interaction
Effect on established stellate-shaped 3D tumour masses (MDA-MB-231 cells; 9-days old organoid masses treated 72 hours, versus control IgG): caused degradation of stellate patterns
Growth and tumour mass development in extracellular matrix (MDA-MB-231 cells; antibody 50-100 μg/mL, day 6, versus control IgG): significantly inhibited growth and tumour mass development

B2: c10G5: chimeric (mouse variable/human constant) IgG1 antibody with the 10G5 VH and VL (antibody, V domains shown)
VH: B1 VH
VL: B1 VL
Binding to human Axl [1]: binds immobilized Axl with profiles very similar to the binding profiles of the corresponding mouse antibody
Inhibition of A549 tumour growth (A549 tumours): around 40%
